According to the supplement of paper PMC9732359:
± gives the uncertainty stated by the source.

Assay: protein stability index of a GFP-peptide fusion (yeast GPS) (PSI 1-4); higher = more stable; sorted into four equal gates, so the index is relative within each strain
Summary of the method: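 The protein stability index of a peptide was calculated by multiplying its read frequency in each gate by that gate's number and adding the products. The peptides were tiled 17-residue stretches of yeast proteins, fused downstream of GFP on a Cherry-expressing plasmid and carried in yeast as a pooled library. Mid-log cultures in leucine-free medium were sorted into four equal gates by GFP/Cherry ratio, and each gate's plasmids were PCR-amplified and Illumina-sequenced.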

ESNKRYRFFKKISEDPV [SNF12]
protein stability index (doa10∆): 3.16 ± 0.16 | protein stability index (pdr5∆): 2.97 ± 0.16 | protein stability index (san1∆): 2.99 ± 0.18 | protein stability index (ubr1∆): 2.69 ± 0.061

ESPLSVAIQQGDIKPEF [YML103C/NUP188]
protein stability index (doa10∆): 2.23 ± 0.11 | protein stability index (pdr5∆): 1.44 ± 0.08 | protein stability index (san1∆): 1.95 ± 0.11 | protein stability index (ubr1∆): 2.38 ± 0.075

ESQEKYMEPFDLDLNEQ [NSL1]
protein stability index (doa10∆): 3.29 ± 0.068 | protein stability index (pdr5∆): 3.21 ± 0.057 | protein stability index (san1∆): 3.35 ± 0.041 | protein stability index (ubr1∆): 3.3 ± 0.045

ESQYPIVTEQPSAEIRE [SWP82]
protein stability index (doa10∆): 2.56 ± 0.04 | protein stability index (pdr5∆): 2.73 ± 0.042 | protein stability index (san1∆): 2.57 ± 0.047 | protein stability index (ubr1∆): 2.56 ± 0.039

ESSKLMTVTKVSLPEGS [BRR2]
protein stability index (doa10∆): 2.93 ± 0.22 | protein stability index (pdr5∆): 2.33 ± 0.11 | protein stability index (san1∆): 3.19 ± 0.1 | protein stability index (ubr1∆): 2.63 ± 0.073

ESVPTPANAEPQAVTIT [ITC1]
protein stability index (doa10∆): 2.88 ± 0.084 | protein stability index (pdr5∆): 2.92 ± 0.075 | protein stability index (san1∆): 2.62 ± 0.063 | protein stability index (ubr1∆): 3.18 ± 0.16

ETAKMIENMTKEKVSNG [FAS2]
protein stability index (doa10∆): 3.41 ± 0.3 | protein stability index (pdr5∆): 3.28 ± 0.13 | protein stability index (san1∆): 3.57 ± 0.091 | protein stability index (ubr1∆): 3.02 ± 0.11

ETEEIDPELLRSYIFGG [RPL5]
protein stability index (doa10∆): 3.22 ± 0.073 | protein stability index (pdr5∆): 3.44 ± 0.082 | protein stability index (san1∆): 3.3 ± 0.046 | protein stability index (ubr1∆): 3.23 ± 0.075

ETELPTLSLPDSQDYIL [SMC1]
protein stability index (doa10∆): 3.1 ± 0.043 | protein stability index (pdr5∆): 3.19 ± 0.054 | protein stability index (san1∆): 3.11 ± 0.037 | protein stability index (ubr1∆): 3.29 ± 0.055

ETHETNISNAKLANFFS [YAR002W/NUP60]
protein stability index (doa10∆): 3.03 ± 0.12 | protein stability index (pdr5∆): 3.15 ± 0.11 | protein stability index (san1∆): 3.15 ± 0.073 | protein stability index (ubr1∆): 3.2 ± 0.13

ETHSKKRKKEANEEPNT [ITC1]
protein stability index (doa10∆): 2.69 ± 0.096 | protein stability index (pdr5∆): 2.6 ± 0.072 | protein stability index (san1∆): 3.13 ± 0.058 | protein stability index (ubr1∆): 2.17 ± 0.058

ETKSWINESAENFSNGI [MED1]
protein stability index (doa10∆): 3.04 ± 0.062 | protein stability index (pdr5∆): 2.72 ± 0.047 | protein stability index (san1∆): 2.74 ± 0.056 | protein stability index (ubr1∆): 2.77 ± 0.042

ETNGYDPFSIYGFSNKE [SNF5]
protein stability index (doa10∆): 1.64 ± 0.047 | protein stability index (pdr5∆): 1.51 ± 0.075 | protein stability index (san1∆): 2.12 ± 0.083 | protein stability index (ubr1∆): 2.03 ± 0.063

ETPEGQACGLVKNLSLM [RPB2]
protein stability index (doa10∆): 1.67 ± 0.13 | protein stability index (pdr5∆): 2.25 ± 0.12 | protein stability index (san1∆): 3.01 ± 0.11 | protein stability index (ubr1∆): 3.03 ± 0.13

ETQEIKENDTVMNTKLL [ESC2]
protein stability index (doa10∆): 2.85 ± 0.086 | protein stability index (pdr5∆): 3 ± 0.063 | protein stability index (san1∆): 2.88 ± 0.1 | protein stability index (ubr1∆): 3.18 ± 0.055

ETRPAQVILPMSPNHGT [FAS2]
protein stability index (doa10∆): 2.43 ± 0.042 | protein stability index (pdr5∆): 2.38 ± 0.04 | protein stability index (san1∆): 2.46 ± 0.071 | protein stability index (ubr1∆): 2.36 ± 0.036

ETTIDDLPISSTDNEAI [SMC1]
protein stability index (doa10∆): 2.67 ± 0.069 | protein stability index (pdr5∆): 2.7 ± 0.087 | protein stability index (san1∆): 2.66 ± 0.053 | protein stability index (ubr1∆): 2.97 ± 0.058

EVAVPDRVAKVLTYPEK [RPO31]
protein stability index (doa10∆): 2.97 ± 0.075 | protein stability index (pdr5∆): 3.06 ± 0.1 | protein stability index (san1∆): 2.88 ± 0.078 | protein stability index (ubr1∆): 3.23 ± 0.078

EVEPALLLLQDYVTNPD [RPN1]
protein stability index (pdr5∆): 1.55 ± 0.11 | protein stability index (ubr1∆): 1.14 ± 0.17

EVTDKNYYYLFDKKSFF [PRP8]
protein stability index (doa10∆): 2.92 ± 0.056 | protein stability index (pdr5∆): 2.44 ± 0.043 | protein stability index (san1∆): 2.9 ± 0.041 | protein stability index (ubr1∆): 2.84 ± 0.04

EVTEGQAEATEWAEENA [RPS0B]
protein stability index (doa10∆): 2.44 ± 0.27 | protein stability index (pdr5∆): 3.22 ± 0.22 | protein stability index (san1∆): 2.44 ± 0.17 | protein stability index (ubr1∆): 2.44 ± 0.14

EVTIEDALKVVLRTALV [RPS12]
protein stability index (doa10∆): 3.35 ± 0.11 | protein stability index (pdr5∆): 3.31 ± 0.091 | protein stability index (san1∆): 3.35 ± 0.099 | protein stability index (ubr1∆): 3.11 ± 0.067

EVTKEEDIIANYASVYP [RRP43]
protein stability index (doa10∆): 2.77 ± 0.07 | protein stability index (pdr5∆): 2.95 ± 0.057 | protein stability index (san1∆): 3.06 ± 0.094 | protein stability index (ubr1∆): 3.06 ± 0.055

EVTKGEKTYTKAPKIQR [RPS6A]
protein stability index (doa10∆): 3.17 ± 0.18 | protein stability index (pdr5∆): 3.19 ± 0.14 | protein stability index (ubr1∆): 3.53 ± 0.13

EVTKSSHVENLEEKLYQ [YIL149C/MLP2]
protein stability index (doa10∆): 2.76 ± 0.073 | protein stability index (pdr5∆): 2.97 ± 0.072 | protein stability index (san1∆): 2.93 ± 0.052 | protein stability index (ubr1∆): 2.98 ± 0.048

EVYGINEESTNERLEIN [SIR4]
protein stability index (doa10∆): 3.29 ± 0.16 | protein stability index (pdr5∆): 3.25 ± 0.13 | protein stability index (san1∆): 3.22 ± 0.16 | protein stability index (ubr1∆): 3.15 ± 0.14

EWKSEFVVPTFGQDVSP [SNM1]
protein stability index (doa10∆): 2.25 ± 0.052 | protein stability index (pdr5∆): 2.29 ± 0.055 | protein stability index (san1∆): 3.04 ± 0.063 | protein stability index (ubr1∆): 2.24 ± 0.05

EYNEDSRLCTPIPVQGE [RPN13]
protein stability index (san1∆): 2.27 ± 0.14 | protein stability index (ubr1∆): 3.11 ± 0.28

EYQIVYYNPQAGTKITI [RGR1]
protein stability index (doa10∆): 2.15 ± 0.13 | protein stability index (pdr5∆): 2.1 ± 0.22 | protein stability index (san1∆): 2.12 ± 0.13 | protein stability index (ubr1∆): 2.45 ± 0.1

FAGVASMNVTLGVPRIK [RPO31]
protein stability index (doa10∆): 2.82 ± 0.095 | protein stability index (pdr5∆): 2.78 ± 0.086 | protein stability index (san1∆): 2.94 ± 0.079 | protein stability index (ubr1∆): 2.76 ± 0.064

FAISMGYLFKVSALDKC [ECM29]
protein stability index (pdr5∆): 1.67 ± 0.21 | protein stability index (san1∆): 1.91 ± 0.23 | protein stability index (ubr1∆): 2.13 ± 0.13

FANYKLLLKKIIKDYVL [SRB4]
protein stability index (doa10∆): 2.41 ± 0.069 | protein stability index (pdr5∆): 2.24 ± 0.068 | protein stability index (san1∆): 1.97 ± 0.09 | protein stability index (ubr1∆): 1.86 ± 0.035

FDDILKVGAEMMMQQQL [MED2]
protein stability index (doa10∆): 2.66 ± 0.11 | protein stability index (pdr5∆): 2.44 ± 0.093 | protein stability index (san1∆): 2.53 ± 0.13 | protein stability index (ubr1∆): 2.46 ± 0.086

FDDLLKPVYKGKKLTDE [RET1]
protein stability index (pdr5∆): 2.85 ± 0.27 | protein stability index (san1∆): 3.32 ± 0.12

FDISMADLSSSEEEEDE [SSN2]
protein stability index (doa10∆): 3.14 ± 0.079 | protein stability index (pdr5∆): 3.13 ± 0.077 | protein stability index (san1∆): 3.11 ± 0.1 | protein stability index (ubr1∆): 2.45 ± 0.063

FDKVIYHLHPTFANPNR [TAF14]
protein stability index (doa10∆): 1.49 ± 0.091 | protein stability index (pdr5∆): 1.44 ± 0.064 | protein stability index (san1∆): 1.43 ± 0.22 | protein stability index (ubr1∆): 1.19 ± 0.057

FDNVASVFMPLIFIACN [ECM29]
protein stability index (doa10∆): 2.9 ± 0.048 | protein stability index (pdr5∆): 2.72 ± 0.038 | protein stability index (san1∆): 2.57 ± 0.045 | protein stability index (ubr1∆): 2.71 ± 0.032

FDPVYTTVITVFLEFSL [YML103C/NUP188]
protein stability index (doa10∆): 1.45 ± 0.043 | protein stability index (pdr5∆): 1.69 ± 0.043 | protein stability index (san1∆): 1.8 ± 0.072 | protein stability index (ubr1∆): 1.62 ± 0.023

FDRLVAGQIPTGWNAKT [FAS2]
protein stability index (doa10∆): 2.15 ± 0.18

FDSVIVENLTVAQECIA [SMC1]
protein stability index (doa10∆): 1.69 ± 0.089 | protein stability index (pdr5∆): 1.62 ± 0.11 | protein stability index (san1∆): 1.84 ± 0.15 | protein stability index (ubr1∆): 1.27 ± 0.061

FDVNNIDMHLIYGVEWL [YDL116W/NUP84]
protein stability index (doa10∆): 2.12 ± 0.059 | protein stability index (pdr5∆): 2.09 ± 0.049 | protein stability index (san1∆): 1.92 ± 0.074 | protein stability index (ubr1∆): 2.27 ± 0.044

FEAQIDSVEFIFQAKRN [RPN10]
protein stability index (doa10∆): 2.32 ± 0.11 | protein stability index (pdr5∆): 2.67 ± 0.082 | protein stability index (san1∆): 2.45 ± 0.13 | protein stability index (ubr1∆): 2.66 ± 0.1

FEETKLSTTPTKSNRRV [SIR4]
protein stability index (doa10∆): 2.65 ± 0.1 | protein stability index (pdr5∆): 2.83 ± 0.12 | protein stability index (san1∆): 2.73 ± 0.12 | protein stability index (ubr1∆): 2.78 ± 0.15

FELCSLGDKELWPVAIG [YJR042W/NUP85]
protein stability index (ubr1∆): 2.49 ± 0.28

FENCYLEGNDIHALAAK [FAS1]
protein stability index (doa10∆): 2.83 ± 0.053 | protein stability index (pdr5∆): 3.06 ± 0.049 | protein stability index (san1∆): 2.88 ± 0.044 | protein stability index (ubr1∆): 2.69 ± 0.041

FEQKGSQTTTNDSKEES [YLR335W/NUP2]
protein stability index (doa10∆): 3.27 ± 0.12 | protein stability index (pdr5∆): 3.13 ± 0.077 | protein stability index (san1∆): 2.98 ± 0.11 | protein stability index (ubr1∆): 3.23 ± 0.05

FEYLATVMYQRRSKMNP [PRE4]
protein stability index (doa10∆): 2.11 ± 0.12 | protein stability index (pdr5∆): 2.72 ± 0.21 | protein stability index (san1∆): 2.6 ± 0.15 | protein stability index (ubr1∆): 2.57 ± 0.28

FEYSKYRPLTPSSEVYS [RRP6]
protein stability index (doa10∆): 3.07 ± 0.086 | protein stability index (pdr5∆): 3.01 ± 0.071 | protein stability index (san1∆): 2.87 ± 0.053 | protein stability index (ubr1∆): 2.83 ± 0.056

FFTNPNKKRPSSKKVFS [YOR098C/NUP1]
protein stability index (doa10∆): 2.85 ± 0.059 | protein stability index (pdr5∆): 3.1 ± 0.054 | protein stability index (san1∆): 3.06 ± 0.046 | protein stability index (ubr1∆): 3 ± 0.05

FGAKMSRTLILSILNEI [SIN4]
protein stability index (doa10∆): 1.84 ± 0.063 | protein stability index (pdr5∆): 1.42 ± 0.044 | protein stability index (san1∆): 1.36 ± 0.088 | protein stability index (ubr1∆): 1.68 ± 0.039

FGAKSDENKAGATSKPA [YJL041W/NSP1]
protein stability index (doa10∆): 3.25 ± 0.11 | protein stability index (pdr5∆): 3.23 ± 0.1 | protein stability index (san1∆): 3.44 ± 0.065 | protein stability index (ubr1∆): 3.25 ± 0.086
